The values that follow come from publication PMC5065005 (The FEBS journal, 2016).

The data set concerns the molecule itself. Nature of the data set: 1D 1H NMR spectra at increasing protein concentration.

B1: human FBxo3 ApaG domain, residues 278–407 (domain or fragment, UniProt Q9UK99 278-407, looked up)
chain: VATTGDITVSVSTSFLPELSSVHPPHYFFTYRIRIEMSKDALPEKACQLDSRYWRITNAKGDVEEVQGPGVVGEFPIISPGRVYEYTSCTTFSTTSGYMEGYYTFHFLYFKDKIFNVAIPRFHMACPTFR
In the case of B1, the binding result is “binds”.
